The values below come from paper PMC5426085 (Frontiers in Microbiology, 2017).

Data set [1] addresses FtsZ (SaFtsZ) (Staphylococcus aureus, UniProt P0A031). Put plainly: GTPase assay (phosphate release), […]° light scattering polymerization, TEM, far-UV CD with recombinant purified FtsZ. The class given is biochemical. To be noted: read-out: % inhibition of GTPase at 8 μg/mL (~15 μM).
Data set [2] deals with the molecule itself. Put plainly: 90° light scattering of polymerization; FtsZ 6 μM in 20 mM Tris pH 7.4, 0.01% Triton X-100; started with 20 mM KCl, 5 mM MgCl2, 1 mM GTP; 37°C; 600 nm; without and with compound 1 (1 to 6 μg/mL); self-assembly into polymers.

For `CN1/C(=C/c2cc(/C=C/c3ccc(O)cc3)[n+](C)c3ccccc23)Sc2ccccc21` [compound 1, 2-((E)-4-hydroxystyryl)-1-methyl-4-((Z)-(3-methylbenzo[d]thiazol-2(3H)-ylidene)methyl)quinolin-1-ium iodide], in data set [1], the inhibition at 8 µg/mL was 58%.

B1: E. coli FtsZ (natural protein, UniProt P0A9A6 1-383, looked up)
chain: MFEPMELTNDAVIKVIGVGGGGGNAVEHMVRERIEGVEFFAVNTDAQALRKTAVGQTIQIGSGITKGLGAGANPEVGRNAADEDRDALRAALEGADMVFIAAGMGGGTGTGAAPVVAEVAKDLGILTVAVVTKPFNFEGKKRMAFAEQGITELSKHVDSLITIPNDKLLKVLGRGISLLDAFGAANDVLKGAVQGIAELITRPGLMNVDFADVRTVMSEMGYAMMGSGVASGEDRAEEAAEMAISSPLLEDIDLSGARGVLVNITAGFDLRLDEFETVGNTIRAFASDNATVVIGTSLDPDMNDELRVTVVATGIGMDKRPEITLVTNKQVQQPVMDRYQQHGMAPLTQEQKPVAKVVNDNAPQTAKEPDYLDIPAFLRKQAD
notes: cell division protein FtsZ, Escherichia coli; also called EcFtsZ; source: recombinant; cloned, overexpressed, and purified as described previously (Sun et al., 2014; Li et al., 2015)
Regarding B1, the binding result in data set [2] is “binds”.

B2: Staphylococcus aureus FtsZ (natural protein, UniProt P0A031 1-390, looked up)
chain: MLEFEQGFNHLATLKVIGVGGGGNNAVNRMIDHGMNNVEFIAINTDGQALNLSKAESKIQIGEKLTRGLGAGANPEIGKKAAEESREQIEDAIQGADMVFVTSGMGGGTGTGAAPVVAKIAKEMGALTVGVVTRPFSFEGRKRQTQAAAGVEAMKAAVDTLIVIPNDRLLDIVDKSTPMMEAFKEADNVLRQGVQGISDLIAVSGEVNLDFADVKTIMSNQGSALMGIGVSSGENRAVEAAKKAISSPLLETSIVGAQGVLMNITGGESLSLFEAQEAADIVQDAADEDVNMIFGTVINPELQDEIVVTVIATGFDDKPTSHGRKSGSTGFGTSVNTSSNATSKDESFTSNSSNAQATDSVSERTHTTKEDDIPSFIRNREERRSRRTRR
notes: cell division protein FtsZ, Staphylococcus aureus; also called SaFtsZ; filamenting temperature-sensitive mutant Z; source: recombinant; cloned, overexpressed, and purified as described previously (Sun et al., 2014; Li et al., 2015)
For the molecule B2, the binding result in data set [2] is listed as “binds”.
